How the values were obtained:
[1] = system: H9C2 cardiac myoblasts; test: Annexin V/PI staining of H2O2 induced apoptosis; assay type: cell-based, rat; details: 10 nM, 30 min pre-incubation, 100 μM H2O2 2 h
Procedure: FIG. 2A is a bar graph showing % apoptosis. H9C2 cardiac myoblasts were pre-incubated ±10 nM of HASF recombinant protein for 30 min, and then challenged with 100 μM of H2O2 for 2 h. Apoptosis was quantified on a flow cytometer with Annexin V and Propidium Iodine (PI) staining. The sum of Annexin V positive cells+Annexin V/PI double positive cells is presented as percentage (%) of total cells. Human recombinant IGF protein was used as a positive control.
Rat cardiac myoblasts-H9C2 cells were obtained from ATCC and cultured in DMEM medium containing 10% of FBS, supplemented with 2 mM of L-glutamine, 100 U/ml of penicillin and 100 μg/ml of streptomycin (Invitrogen). Cells were seeded one day before at 1×10^5/well in 6-well plates. The following day, the cells were treated for 30 min with 10 nM of HASF the recombinant protein, the MBP or PBS were used as controls. Then the cells were challenged with 100 μM of H2O2 for 2 h. The attached and floating cells were collected. H2O2 induced apoptosis was then analyzed on a flow cytometer for Annexin V/Propidium Iodine double staining with the Vybrant Apoptosis Assay Kit #2 (Invitrogen).

[2] = system: adult rat cardiomyocytes; test: Mitochondrial permeability transition pore (mPTP) channel opening after hypoxia/reoxygenation; assay type: cell-based; details: HASF (100 nM) prior to hypoxia/reoxygenation, vs control untreated samples
Procedure: FIG. 2D is a series of photomicrographs and a bar graph showing that HASF protects from mPTP channel opening and cell death after ischemia and reperfusion. Adult rat cardiac myocytes were cold-loaded with fluorescent calcein and CoCl2 and subjected to 3-5 h of ischemia followed by 30-60 min reperfusion. Mitochrondria were counterstained with TMRM. Under these conditions increased calcein intensity (green) indicate the entrapped calcein in mitochrondria which is due to reduction of open mPTP channels. Upper panel: Representative images of cells subjected to 3 h ischemia, 60 min reperfusion and cells treated with 100 nM HASF prior to 3 h ischemia, 60 min reperfusion. Lower panel: Quantitative fluorescence analysis of images represented above. The percentage of Calcein intensity was normalized to mitotracker, mitochondrial, intensity and the value was inverted and presented as of mPTP channel opening. Data are presented as means±stdev of values estimated from 8 images per condition.
FIG. 4D is a bar graph and a photomicrograph showing the effect of recombinant protein, HASF on mPTP channel as imaged by confocal microscopy. […] The presence of PKCepsilon inhibitor peptide caused the opening of the mPTP channel as observed by decreased (quenched) calcein intensity. The bar graph depicts measured fluorescence of calcein versus mitotracker intensity under different conditions. […]

[3] = system: primary embryonic rat neurons; test: Caspase 9 assay in H2O2 challenged primary neurons; assay type: cell-based; details: H2O2 (50 μM) 30 min
Procedure: FIG. 2E is a bar graph showing caspase activity in primary neurons. Embryonic rat neuronal cells were pre-incubated ±100 nM of HASF recombinant protein for 30 min, and then challenged with 200 μM of H2O2 […]. Apoptosis was determined by caspase 9 levels. The results from two independents experiments are shown. ** P<0.01. Data are presented as means±standard deviation of triplicates.
FIG. 4E is a bar graph showing relative caspase activity in primary neurons. Apoptosis as determined by detection of Caspase-9 activity on primary neuron pre-treated with 178 μM PKC translocation inhibitor peptide for 10 minutes and then with 100 nM of HASF for 30 minutes. Thereafter, cells were challenged with 200 μM H2O2 for 3 hours. All samples were measured in replicas N-4 and the experiments was repeated twice. *P<0.05 vs. non-HASF treated cells.
Embryonic rat cortex tissue was purchased from Neuromics (Edina, Minn.). Primary neurons were isolated, cultured on poly-D-lysine coated glass slides according to provided instructions and allowed to grow for 5 days in complete neurobasal media. Cells were treated with PKC-epsilon inhibitor and recombinant protein HASF as described above for cardiomyocytes). For induction of stress the cells were challenged with H202 (50 μM) for 30 min followed by 3 hours of recovery at 37° C. […]

B1: HASF: Hypoxia regulated Akt MSC Factor, secreted protein encoded by C3orf58; recombinant human protein without N-signal sequence, SEQ ID NO:1 or 2 (protein, UniProt Q8NDZ4 36-430, looked up)
Divergent protein kinase …: LASWQRNELTDRRFLQLNKCPACFGTSWCRRFLNGQVVFEAWGRLRLLDFLNVKNVYFAQYGEPREGGRRRVVLKRLGSQRELAQLDQSICKRATGRPRCDLLQAMPRTEFARLNGDVRLLTPEAVEGWSDLVHCPSQRLLDRLVRRYAETKDSGSFLLRNLKDSERMQLLLTLAFNPEPLVLQSFPSDEGWPFAKYLGACGRMVAVNYVGEELWSYFNAPWEKRVDLAWQLMEIAEQLTNNDFEFALYLLDVSFDNFAVGPRDGKVIIVDAENVLVADKRLIRQNKPENWDVWYESKFDDCDKEACLSFSKEILCARATVDHNYYAVCQNLLSRHATWRGTSGGLLHDPPSEIAKDGRLEALLDECANPKKRYGRFQAAKELREYLAQLSNNVR
modifications: 6xHis tag
[1]
  decrease of H2O2 induced apoptosis (Annexin V/PI staining): ~50%
[2]
  mPTP channel opening: reduced compared to control untreated samples
[3]; 30 min pretreatment, P<0.05
  attenuation of Caspase 9 levels: 20-40%
[3]; HASF 30 min
  Caspase 9 levels in challenged neuronal cells: significantly reduced

From patent US20120172306A1, “Use of HASF as a Protective Agent Against Ischemic Tissue Damage” (Duke University, priority 2009, published 2012)
